Non-standard residues stand in square brackets, D forms with d. No end group written: not given here. Some results are limits rather than exact numbers.

The nature of data set [1]: Gelation by vial tilting method. Format: physicochemical. The following applies: for Concentration to form the gel: in the presence of a salt; for Minimum concentration to form the gel: without the presence of a salt. The procedure: The peptide powder was dissolved in water or other aqueous solutions at the required concentrations. Alternatively, the required salt may be added after the peptide aqueous solution is prepared. The hydrogel was formed by mixing the peptide aqueous solution and salt (if required). For example, the solution was vortexed and then incubated to form hydrogel. The hydrogel formed may be stored as formed, or may be dried, for example by freeze drying. Alternatively, the hydrogel may be formed as required. The gelation time was determined by the vial tilting method. […] Rheology experiments were performed at room temperature using a control-strain rheometer (ARES G2, TA instruments). The rheometer is equipped with two sensitive force transducers for torque ranging from 0.05 μN·m to 200 mN·m. The peptide powder was dissolved in water at concentrations ranging from 1.0 to 2.0 (w/v) %. The solution was vortexed and then incubated to form hydrogel. The gel was placed onto parallel-plate geometry (8 mm in diameter). The dynamic storage modulus (G′) and loss modulus (G″) were examined as a function of frequency from 1 to 100 rad/s. The measurements were carried out at a strain amplitude (y) to ensure the linearity of viscoelasticity. Flow sweep (viscosity changes as a function of shear rate) was also performed to study shear thinning properties of hydrogels.

Data set [2] in a line: CD spectra of peptide amphiphiles. It counts as physicochemical. The following applies: 1.0 mg/mL, with addition of salt (PBS pH 7.4), room temperature. As to the method: CD measurements were performed with a Jasco Model J-810 spectropolarimeter (Jasco, Great Dunmow, Essex, UK) using a quartz cuvette with 1 mm pathlength (Hellma, Germany). Spectra were recorded (average of 3 scans) from 240 to 190 nm at a scan speed of 50 nm/min. The ellipticity was derived from the formula: [θ]λ=(M/(N−1)×θλ)/(d×c), where θλ represents observed ellipticity (degrees) at wavelength λ, d represents pathlength (cm), c represents the concentration (g/mL), and [θ]λ represents residue ellipticity (deg cm^2 dmol^−1). Thermal scans were measured with Jasco Model J-810 spectropolarimeter equipped with a peltier temperature controller. The solution was allowed to reach equilibrium for 10 min at room temperature prior to testing.

A short description of data set [3]: Stability of peptide hydrogels in PBS.
Data set [4] can be described thus: Rheology, G′ and G″ at frequency of 1 Hz. Format: physicochemical. The procedure:
The gelation time was determined by the vial tilting method. […] Rheology experiments were performed at room temperature using a control-strain rheometer (ARES G2, TA instruments). The rheometer is equipped with two sensitive force transducers for torque ranging from 0.05 μN·m to 200 mN·m. […] The solution was vortexed and then incubated to form hydrogel. The gel was placed onto parallel-plate geometry (8 mm in diameter). The dynamic storage modulus (G′) and loss modulus (G″) were examined as a function of frequency from 1 to 100 rad/s. The measurements were carried out at a strain amplitude (y) to ensure the linearity of viscoelasticity. Flow sweep (viscosity changes as a function of shear rate) was also performed to study shear thinning properties of hydrogels.

The subject of data set [5] is C. neoformans. As to conditions: clinically isolated yeast C. neoformans; cited from earlier work.
The subject of data set [6] is rat red blood cells. The following applies: cited from earlier work.
Data set [7] deals with MRSA. The following applies: clinically isolated MRSA; cited from earlier work.
The conditions of data set [8]: antimicrobial peptide alone; cited from earlier work.
Data set [9] relates to P. aeruginosa. As to conditions: clinically isolated multidrug-resistant P. aeruginosa; cited from earlier work.
Data set [10] deals with VRE. The following applies: clinically isolated VRE; cited from earlier work.
The subject of data set [11] is A. baumannii. The following applies: clinically isolated multidrug-resistant A. baumannii; cited from earlier work.
The subject of data set [12] is hMSCs. As to the kind of experiment: Live/Dead staining of hMSCs on or in peptide hydrogel (confocal). Format: cell-based, human. The procedure:
hMSCs were cultured in MSCGM medium (Lonza, U.S.A.) and incubated at 37° C., 5% CO2. The medium was changed every three days. The cells were harvested with PBS containing 0.025 (w/v) % trypsin and 0.01% EDTA, centrifuged and sub-cultured to passage 4 in MSCGM for 2D culture on the surface of hydrogels or 3D hydrogel encapsulation as described below.
The morphology and viability of hMSCs on the surface of hydrogels and inside 3D peptide hydrogel environment was observed by an inverted confocal laser scanning microscope (CLSM) (CLSM, Carl Zeiss, Germany). Live/Dead cell staining assay (Invitrogen) was used. Briefly, cells cultured on the surfaces of hydrogels in chambered cover glass (NUNC, Denmark) were washed with PBS and incubated in 0.5 mL of PBS containing dyes for 10 min, then visualized by CLSM at excitation wavelengths of 488 nm and 532 nm. All the observations were conducted under the same conditions. For the cells grown in 3D hydrogels, the constructs were cut, followed by the addition of staining agent. The gels were transferred to cover glass and then visualized by CLSM using the same method as described for the cells on the hydrogel surface.

Data set [13] in a line: In vitro cytotoxicity, MTT assay. As to conditions: human. Format: cell-based, human. As to the method: 1000 μL of HDFs or keratinocytes (10^5 cells per mL) were seeded onto the 12-well Transwell plates (Corning). IIK12 (1%) with various contents of antimicrobial peptides were dissolved in water and incubated at 37° C. overnight and 100 μL of gels were then transferred to the inserts of the Transwell plate. 1 mL of fresh medium was added into the inserts. The plates were incubated for 24 h before proceeding to MTT assay. It is noted that cells without any treatment and Mupirocin (GSK) were used as controls. The data were expressed as mean and standard deviation of three replicates and the tests were repeated 3 times.

For data set [14] the following is noted: keratitis mouse model; cited from earlier work.
The mark [15] stands for this setting: 1.5 wt %, gelation temp. R.T., H2O.
The mark [16] stands for this setting: 1.5 wt %, gelation temp. 37 °C, DMEM.
The mark [17] stands for this setting: 1.5 wt %, gelation temp. 37 °C, H2O.
Setting [18] is: 2.0 wt %, gelation temp. 37 °C, H2O.

In the case of IRVEIKVE (IRVEIKVE-NH2) [IRE8], in [1] (peptide conc. 1.0 %), the “Gelation in DI water at R.T. (via tilting)” value is “No”. Also, in data set [1] (peptide conc. 2.0 %), the “Gel appearance, gelation in DI water at R.T.” value is “clear”; the “Gelation in DI water at 37° C. (via tilting), time” value stood at 1400 min; the “Gelation in DI water at R.T. (via tilting), time” value came to 4300 min. In [1] (peptide conc. 2.0 %, listed as IRVEIKVE), the “Gelation in DI water at R.T. (via tilting), time” value is given as 3 days,.
As for IRVEIK (IRVEIK-NH2), the “Gelation in DI water at R.T. (via tilting)” value in [1] (peptide conc. 1.0 %) and in data set [1] (peptide conc. 2.0 %) was “No” throughout.
Consider IEVEIEVKIRVK (IEVEIEVKIRVK-NH2) [IEV12], for which, in data set [1] (peptide conc. 0.5 %), the “Gelation in DI water at R.T. (via tilting)” value was “No”. Also, the “Gelation in DI water at 37° C. (via tilting)” value in data set [1] (peptide conc. 1.0, 2.0 %) is “Gel”.
For IRVE (IRVE-NH2), in data set [1] (peptide conc. 10 %), the “Gelation in DI water at R.T. (via tilting)” value was “No”.
Regarding IRVEIRVEIRVE (IRVEIRVEIRVE-NH2) [IRV12], the “Gelation in DI water at R.T. (via tilting)” value in data set [1] (peptide conc. 0.5 %) is “No”. Further, in data set [1] (peptide conc. 1.0, 2.0 %), the “Gel appearance, gelation in DI water at 37° C.” value is given as “cloudy” and the “Gelation in DI water at 37° C. (via tilting)” value is listed as “Gel,”.
With IRVEIEVK (IRVEIEVK-NH2) [IRK8], the Gel formation result in [1] (concentrations up to 2%) is “no gel formation”. Moreover, the “Gelation in DI water at R.T. (via tilting)” value in data set [1] (peptide conc. 1.0 %) and in data set [1] (peptide conc. 2.0 %) was “No” each time.
Turning to IELEIRLK (IELEIRLK-NH2) [ILK8], in data set [1], the “Concentration to form the gel” value came to 0.6 % w/v and the “Minimum concentration to form the gel” value is recorded as 1.0 % w/v. For the same substance, in data set [1] (peptide conc. 1.0 %), the “Gelation in DI water at 37° C. (via tilting)” value is listed as “overnight” and the “Gelation in DI water at R.T. (via tilting), time” value was found to be 1 day days. In data set [1] (peptide conc. 1.5 %), the “Gelation in DI water at 37° C. (via tilting), time” value was determined as 15 min and the “Gelation in DI water at R.T. (via tilting), time” value is recorded as 30 min. For the same substance, in data set [1] (peptide conc. 2.0 %), the “Gelation in DI water at 37° C. (via tilting), time” value amounted to 10 min and the “Gelation in DI water at R.T. (via tilting), time” value stood at 20 min. Besides, the “Molecular ellipticity (θM) at the minimum point” value in [2] is on record as −21.4 deg.cm^2dmol^−1. Besides, the “Stability in PBS” value in [3] (peptide conc. 1.0 %) is listed as “Yes”. Also, the “Stability in PBS” value in [3] (peptide conc. 1.5 %) was “Yes”. Also, the “Stability in PBS” value in data set [3] (peptide conc. 2.0 %) is given as “Yes”. Also, in data set [4] (setting [15]), the “G′ (storage modulus)” value came to 332 Pa and the “G″ (loss modulus)” value is recorded as 40 Pa.
IRVKIEVEIRVK (IRVKIEVEIRVK-NH2) [IVK12]: the “Lowest concentration at which hydrogels self-assembled” value in [1] (aqueous solution) is given as 0.6 (w/v) %. For the same substance, in data set [1] (peptide conc. 0.6, 1.0 %), the “Gelation in DI water at 37° C. (via tilting)” value was “Gel”.
In the case of “IK8D: D-enantiomer of antimicrobial peptide IRIKIRIK ([dI][dR][dI][dK][dI][dR][dI][dK])”, the MIC in data set [5] is 7.8 µg/mL; in [7], 3.9 µg/mL; in [9] it was 15.6 µg/mL; in [10], 3.9 µg/mL; in [11], 31.3 µg/mL. For the same substance, the “HC10 value (the lowest concentration that induced 10% or more hemolysis)” value in [6] is 1750 µg/mL. Also, in [8], the “Peptide concentration at which a hydrogel forms” value is given as 8 w/v %.
In the case of IEVEIRVK-NH2 [IVK8, IEVEIRVK], the “Viability of encapsulated cells” value in data set [12] (1 day after encapsulation) is given as “the majority of encapsulated hMSCs remained viable”. For the same substance, the “Viability of cells on the surface of peptide hydrogel” value in data set [12] (after 24 h attachment) was “the majority of the cells remained viable”.
With IRIKIRIK-NH2 [IK8L, IRIKIRIK], the “HC10 value (the lowest concentration that induced 10% or more hemolysis)” value in [6] is 2000 µg/mL. In addition, in data set [13] (human dermal fibroblasts (HDFs) in 12-well Transwell plates), the viability at 24 h, 1000 µg/mL was determined as 22%. The same substance yielded a viability at 24 h, 125 µg/mL in data set [13] (human primary keratinocytes in 12-well Transwell plates) of over 70%. Also, the “Toxicity to the eyes” value in data set [14] is reported as “without causing significant toxicity to the eyes”.
On to IEIEIRIK (IEIEIRIK-NH2) [IIK8], for which the “Concentration to form the gel” value in data set [1] is given as 0.6 % w/v. For the same substance, the “Gel appearance, gelation in DI water at R.T.” value in [1] (peptide conc. 1.0 %) is reported as “clear”. Besides, the “Gelation in DI water at 37° C. (via tilting)” value in data set [1] (peptide conc. 1.0 %) is on record as “overnight”. Further, the “Gelation in DI water at R.T. (via tilting), time” value in data set [1] (peptide conc. 1.0 %) is given as 1 day, days; in [1] (peptide conc. 1.5 %), 30 min; in [1] (peptide conc. 2.0 %) it was 30 min. In addition, the “Gelation in DI water at 37° C. (via tilting), time” value was at most 15 min in data set [1] (peptide conc. 1.5 %); 20 min in data set [1] (peptide conc. 1.5 %, listed as IEIEIRIK); 20 min in data set [1] (peptide conc. 2.0 %). In data set [1], the “Minimum concentration to form the gel” value came out at 1.0 % w/v. In addition, the “Molecular ellipticity (θM) at the minimum point” value in data set [2] was −28.9 deg.cm^2dmol^−1. Further, the “Stability in PBS” value in data set [3] (peptide conc. 1.0 %), in [3] (peptide conc. 1.5 %) and in data set [3] (peptide conc. 2.0 %) was “Yes” throughout. For the same substance, the “G′ (storage modulus)” value in data set [4] (setting [16]) stood at 1206 Pa; in data set [4] (setting [17]), 707 Pa; in data set [4] (setting [15]), 125 Pa; in data set [4] (setting [18]), 1139 Pa. The “G″ (loss modulus)” value in data set [4] (setting [16]) came out at 172 Pa; in [4] (setting [17]), 32 Pa; in data set [4] (setting [15]) it was 22 Pa; in data set [4] (setting [18]) it was 90 Pa.

The values are drawn from US20220356210A1, “A SERIES OF INJECTABLE HYDROGELS SELF-ASSEMBLED FROM SHORT PEPTIDES FOR VARIOUS BIOMEDICAL APPLICATIONS” (Agency for Science, Technology and Research, priority 2019, published 2022).
